# According to article PMC10654033:
# Biological target: SpnA (S. pyogenes nuclease A), recombinant, residues Val25 to Leu876 (S. pyogenes) (UniProt Q9A0J7)
# Test: SPR; Biacore T100; SpnA immobilized on a CM5 chip by amino coupling (7247 resonance units); IdeS injected at 10, 20, 40, 80 and 160 μM, 10 μl/min; 100 mM Hepes, 150 mM NaCl, 0.05% surfactant P20, pH 7.4; 1:1 Langmuir binding model
substance,measurement,value
IdeS (immunoglobulin G-degrading enzyme of Streptococcus pyogenes) (from UniProt Q7DAM2 1-339),Kd,53.3 µM
